Test results from the nanobody polyreactivity screen of Harvey et al. (2022).

Test: yeast display, Sf9 membrane polyspecificity reagent, FACS + sequencing; frameworks hold sequencing errors
Method in brief: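 After 36–48 hours of galactose induction, yeast (Saccharomyces cerevisiae BJ5465) displaying a synthetic nanobody library were stained at 4 °C for 1 hour with 10% biotinylated, detergent-solubilized Sf9 membrane reagent. Streptavidin microbeads enriched the stained cells before FACS sorting into low and high (top ~1%) gates on anti-HA and streptavidin fluorescence. Each clone's polyreactivity label reflects its gate of origin.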

Row | Sequence | polyreactivity (PSR sort gate)
1 | QVQLVESGGGLVQAGGSLRLSCAASGSTFRSYAMGWYRQAPGKERELVAVISKRGGSTYYADSVKGRFTISRDNAKNTVYLQMNSLKPEDTAVYYCAARPGPYWTVTFRSPKYYYWGQGTQVTVSS | high polyreactivity
2 | QVQLVESGGGLVQAGGSLRLSCAASGGTFRLYAMGWYRQAPGKERELVAAISGRGGSTYYADSVKGRFTISRDNAKNTVYLQMNSLKPEDTAVYYCARYRRGKMDYWGQGTQVTVSS | high polyreactivity
3 | QVQLVESGGGLVQAGGSLRLSCAASGFTFYINALGWYRLAHGKERELVAAITWRSVRTYYADSVKGRFTISRDNAKNTVYLQMNSRKPEDTEVYYCAAASAYRHGEYDYWGQGTQLTVSS | low polyreactivity
4 | QVQLVESGGGLVQAGGSLLLSCAASGSTFGSYDMGWYRQAPGKERELVATISTSGSGTYYADSVKGRFTISRDNSKNTVYLQMNSLKPEDTAFYDCAKDPADGRRFRYGYWGQGTQVTVSS | low polyreactivity
5 | QVQLVESGGGLVQAGGSLRLSCAASGRTFYLNAMGWYRQAPGKERQLVAVISYRGDSTYADSVKGRFTISRDNAKNTVYLQMNSLKPEDTAVYYCAADLTRYHYRYLVTHWWYDYWGQGTQVTVSS | low polyreactivity
6 | QVQLVESGGGLLQAGGSLRISCAASGSTFYYYAMGWYRQAPGKERELVAAISRGGGSTYYADSVKGRFTISRDNAKNTVYLQMNSLKPEDTAVYYCAARRVGGGFYTWRNPAYEYWGQGTQVTVSS | high polyreactivity
7 | QVQLVESGGGLVQAGGSLRLSCAASGSIFQGNVMGWSRQAPGKERELVAAISSGGRTYYADSVKGRFTISRDNAKNTVYLQMNSLKPEDTAVYYCAASWLTSYAYIMYYWGQGTQVTVSS | high polyreactivity
8 | QVQLVESVGGLVQAGGSLRLSCAASGRIFAVYAMGWYRQAPGKEREFVAAISYSGGITYYADSVKGRFTISRDNAKNTVYLQMNSLKPEDTAVYYCNAYYYFWGQGTQVTVSS | low polyreactivity
9 | QVQLVESGGGLDQARGSLRLSCAASGITFHPNAMGWYRQAPGKERELVAAISGRRSRTYYADSVKGRFIISRDNAKNTVYLLLNSLKPEDTAVYYCAKDHPSGRQYDYWGQGTQVTVSS | high polyreactivity
10 | QVQLVESGGGLVQAGGSLRLSCAASGFTFYGYAMGWYRQAPGKERELVAAINSGAITNYADSVKGRFTISRDNAKNTVYLQMNSLKPEDTAVYYCAASYRRLTGVGADEYWGQGTQVTVSS | high polyreactivity
11 | QVQLVESGGGLVQAGGSLSLSCAASGSTFYENAMGWYRQAPGKERELVAAITWSGGRTYYADSVKGRFTISRDNAKNTVYLQMNSLKPEDTAVYYCNARARSRKFYYWGQGTQVTVSS | high polyreactivity
12 | QVQLVESGGGLVQAGGSLRLSCAASGITFSRYAMGWYRQAPGTERELVAAITSSGGSTYYADSVKGRFTISRDNAKNTVYLQMNSLKPEDTAVYYCAATSYYTREQYYYWGQGTQVTVSS | high polyreactivity
13 | QVQLVESGGGLVQAGGSLRLSCAPSGFTFSRYAMGWYRQAPGKERELVAAITRGGGNTYYADSVKGRFTISRDNAKNTVYLQMNSLKPEDTAVYYCNAQVGNFGYRSGGYDYWGQGTQVTVSS | high polyreactivity
14 | QVQLVESGGGLDQAAGSLRLSCAASGSNFQWYTMGWYRQAPGKERELVAAITWSGASTYYADSVKGRFTISRDNAKNTVYLQMNSLKPEDTAVYYCAADWRRGTGFYYWGQGTQVTVSS | high polyreactivity
15 | QVQLVESGAGLVQAGGSLRLSCASSGTIFWGYAMGWYRQAPGKERELVAAITDSGGRTYYADSVKGRFTISRDNAKNTVYLQMNCLKPEDTAVYYCAADYYSQYYYYAVPDRDYWGQGTQVTVSS | low polyreactivity
16 | QVQLVESGGGLVQAGGSLRLSCAASGRIFGWYAKGWYRQAPGKETELVAAISPGGSTKYADSVKGRFTISRDYAKNTVYLQMNSLKPEDTADYYFAADLFNYTTGRDYWGQGTQVTVSS | low polyreactivity
17 | QVQLVESGGGLVHAGGTLSLSCADSGFTYVLYGMGWYRQEPGKESELVASITWNGVGTYYADSVKGRFTIARDNAKNTVYLHMNSLKPEDTSVYFCHADDPDLASYLGVDYWGQGSQVTVSS | high polyreactivity
18 | QVQLVESGGGLVQEGGSLRLSCAASGLIFSEYAMGWSRQAPGKERELVAAIRSDGGSTYYADSVKGRFTISRDNAKNSVYLQMNSLKPEDTAVYYCNAPYRRSAKFRRYGYDYLGQGTQVTVSS | high polyreactivity
19 | QVQLVESGGGLVQAGGSLRLSCASSGSIFDVNAMGWYRPAPGKERELVAAISQRGTRTYYADSVKGSFTISRDNAKNTVYLQMNSLKPEDTAVYYCNRGGWRQYDSWGQGSQVTVSS | high polyreactivity
20 | QVQLVESGGGLVQAGGSLRLSCAASGSISYYNAMGWYRQAPGKERELVATITDSGGSTYYADSVKGRFTISRDNAKNTVYLQMNSLKPEDTAVYYWAVDYSEWYSIYEYWGQGTQVTVSS | low polyreactivity
21 | QVQLVESGGGLVQAGGSLRLSCAASGIIFGTNAMGWSRQAPGKERELVAAITWSGGTYYADSVKGRFTISRDNAKITVYLQMNSQKPEDTAVYYCNAEWRVYPDLYDYWGQGTQVTVSS | low polyreactivity
22 | QVQLVESGGGLVQAGGSLRLSCAASGSIFAWYAMGWYRQAPGKERELVATITWSGGSTYYADSVKGRFTITRDNAKNTVYLQINSLKPEDTAVYYCAAEVVGIWYDLWYQGDYWGQGTQVTVSS | low polyreactivity

Row | Sequence | polyreactivity (PSR sort gate)
23 | QVQLVESGRGLVQAGGSLRISCASSGNTFVYNPMGWYRQAPGKERELVAAIDSGGSTNYADSVKGRFTISRDNAKNTVYLQMNSLKPEDTAVYYCNRTSVYDYYWGQGTQGTVSS | low polyreactivity
24 | QLQLVQSGGGLVQAGGSLRLSCASSGRTFTPNARGWYSQAPGKEREMVAAISWRGGSTYYADAVMGRFTISRVNGKYTVYLEMKSLKPEDTGVYYCKKRSDKSYTRTEYDNWRQGTQVTVSS | high polyreactivity
25 | PVQLVESGGGLVQAGGSLRLSCAASGSIFDLNAMGWYRQAPGKERELVAAISSGGGTYYADSVKGRFTISLDNAKNTVYLQMNSLKPEDTAVYSCNRVTRGSYNYWGQGTQVTVSS | high polyreactivity
26 | QVQLVESGGGLVQAGGSLRLSCAASGSIFSTNDRGWYRQAPGKERELVAAISVSGGSTYYADSVKGRFTISRDNAKNTVYLQMNSLKPEDTAVYYCNADYTRGTMYYWGQGTQVTVSS | low polyreactivity
27 | QVQLVESGAGLVQAGGSLRLCCAASGFIFRVYAMGLYRQAPGKERELVAAISDSGGSTTYADSVKGRFTISRDNAKNTVYLQMNSLKPEDTAVYYCAAKLPRSRYRGVDYWGQGTQVTVSS | low polyreactivity
28 | QVQLVDSGGGLVQAGGSLRLSCAASGRTFYYYAMGWYRQAPGKERELVADIRGRGGSTYYADSVKGRFTISRDNAKNTVYLQMNSLKPEDTAVYYCARRSPNPYSIYYYWGQGTQVTVSS | high polyreactivity
29 | QVQLVESGGGLVQAGGSLSLSCAASGFTFPLYAMGWYRPAPGKERELVASISKSGGRTYYADSVKGRFTISRDNAKNTVYLQMNSLKPEDTAVYYCATLPRYYGYWGQGTQVTVSS | high polyreactivity
30 | QVQLVESGGGLVQAGGSLRLSCAASGSTFYIYAMGWYRQAPGQERELVATISWSGGSTYYADSVKGRFTISRDNAKNTVYLQMNSLKPEDTAVYYCAVRPGFGRSLWYGYWGQGTQVTVSS | high polyreactivity
31 | QVQLVEAGGGLVQAGVSLRLSCAASGIIFGSYAMGWYRQAPGKERELVATISYDGGSTYYADSVKGRFTISRDNAKNTVYLQMKSLKPDDTAVSYCAAVYQSWFGLRSYYYWGQGTQVTVSS | high polyreactivity
32 | QVQLVESGGGLVQAGGSLRLSCAASGSIFPAYAMGWYRQAPGKERELVAAITRGGSTDYADSVKGRFTISRDNAKNTVYLQMNSLKPEDTAVYYCATGDGPSLFDYWGQGTQVTVSS | low polyreactivity
33 | QVQLVESGGGLVQAGGSLRLSCAASGFIFYGYAMGWYSQAPGKERELVAGISTGGSTNYADSVKGRFTISRDNAKNTVYLQMNSLKPEDTAVYYCAKRAYFYYGRYDYWGQGTQVTVSS | low polyreactivity
34 | QFQLVESGGGLVQAGGSLRLSCAASGFTFDFYAMGWYRQAPGKERELVAAISKNDGTTYYADSVKGRFTISRDNAKNTVYLQMNSLKQEDTAVYYCAAPNWRDYYSSGQGTQVTVSS | low polyreactivity
35 | QVQLVESGGGLVHAGGSLRLSCAASGSIYVDNAMGWYRQAPGTERELVAVISWIGSSTYYADSVKGRFTISRDNAKYTVYFQMNSLNPEDTAVFYCAAAPSRTLLRQSKYYFWGQGTQVNVSS | low polyreactivity
36 | QVQLVESGGGLVQAGGSLRLSCAASGSTFDSYAMGWYRQAPGKEGELVAAITGGGDTNYADSVKGRFTISRDNAKNTVYLQMNSLKPEDTAVYYCAAYQRRGNYQMDLWGQGTQVTVSS | low polyreactivity
37 | QVQLVESGVGLVQAGGSLRLSCAASGRTFYVYAMGWNIQAPGKERELVAAISWGRGSTYYADSVKGRFTNSRDYAKNTVYLQMNSLQPEDTAVYYCADDKTRYRLGRDYWGQGTQVTVSS | low polyreactivity
38 | QVQLVESGGGLVQAGGSLRLSCAASGSIFEDYTRGWYRQAPGKERELVAAIDWSDASTFYADSVKGRFTISRDNAKNTVYLQMSLNPEDTAVYYCNVAIIFYDDDYWGQGTQVTVSS | high polyreactivity
39 | QVQLVESGVGLVQAGASLRLSCAASGFIFRKNAMGWYRQAPGKERELVAAISGSGGRTYYADSVKGRFTISRDNAKNTVYLQMNSVKPEDNAVYYCNADYLSRRYSFDYWGQGTQVTVSS | high polyreactivity
40 | QVQLVESGGGLVQAGGSLRLSCAASGLIFYRYAMGWYRQAPGKERELVAAISSSGGSTYYADSVKGRFTISRDNAKNTVYLQMNSLKPDDTAVYYCAARPSTHGYKYGYWGQGTQVTVSS | high polyreactivity
41 | QVQLVESGGGLVQAGGSLRLSCAASGRTLQGYAMGWYRQAPGKERELVAAISRGGGSTYADSVKGRFTISRDNAKNTVYLQMNSLKPEDTAVYYCNKKSYYRYYWGQGTQVTVSS | high polyreactivity
42 | QVQLVESGGGLVQAGGSLRLSCAASGSTFFTYAMGWYRQAPGKERELVAAISWSGGTTYYSDSVKWRFTISRDYAKNTDYLQMNSLKPEDTAGYYCASDRDGILKANDYWGQGTQVTVSS | low polyreactivity
43 | QVQLVESGGGLVQAGGSLRLSCAASGSILASNAMGWYRQAPGKDRELVAAITTSGGSTYYADSVKGRFTISRHNAKNTVYLQMNSLKPEDTAVYYCNAEYWLGRWLRYGYWGQGTQVTVSS | high polyreactivity
